This is an account of results in PMC11170914, “A distinct dimer configuration of a diatom Get3 forming a tetrameric complex with its tail-anchored membrane cargo” (BMC Biology, 2024).

The data set deals with the molecule itself. Kind of data set: SEC; recombinant Get3/TA complex from yeast or zebra fish; SEC and SDS-PAGE (Fig. S10); conditions not shown.

B1: Get3 from zebra fish (recombinant Get3/TA complex) (natural protein)
chain: not shown
notes: Get3 of zebra fish (Danio rerio); also called zebra fish Get3; source: recombinant, purified as Get3/TA complex
B1: the stoichiometry N (in general, a count of units in the complex or per binding partner) was 2.

B2: Get3 from yeast (recombinant Get3/TA complex) (natural protein, UniProt Q12154 1-354, looked up)
chain: MDLTVEPNLHSLITSTTHKWIFVGGKGGVGKTTSSCSIAIQMALSQPNKQFLLISTDPAHNLSDAFGEKFGKDARKVTGMNNLSCMEIDPSAALKDMNDMAVSRANNNGSDGQGDDLGSLLQGGALADLTGSIPGIDEALSFMEVMKHIKRQEQGEGETFDTVIFDTAPTGHTLRFLQLPNTLSKLLEKFGEITNKLGPMLNSFMGAGNVDISGKLNELKANVETIRQQFTDPDLTTFVCVCISEFLSLYETERLIQELISYDMDVNSIIVNQLLFAENDQEHNCKRCQARWKMQKKYLDQIDELYEDFHVVKMPLCAGEIRGLNNLTKFSQFLNKEYNPITDGKVIYELEDKE
notes: Get3 of yeast; also called yeast Get3; source: recombinant, purified as Get3/TA complex
Consider B2, for which the “stoichiometry N” value amounted to 2.
